The target in this assay is TrkC, Q16288. Kind of assay: SPR (BIAlite), receptor amine-coupled on CM4 chip, ligand injected, 25 C. Particulars: remark: other sources report otherwise.

Our source for the Kd values is patent publication US20090074779A1.

TrkC, Q16288, sequence (Q16288 32-429 limits assumed): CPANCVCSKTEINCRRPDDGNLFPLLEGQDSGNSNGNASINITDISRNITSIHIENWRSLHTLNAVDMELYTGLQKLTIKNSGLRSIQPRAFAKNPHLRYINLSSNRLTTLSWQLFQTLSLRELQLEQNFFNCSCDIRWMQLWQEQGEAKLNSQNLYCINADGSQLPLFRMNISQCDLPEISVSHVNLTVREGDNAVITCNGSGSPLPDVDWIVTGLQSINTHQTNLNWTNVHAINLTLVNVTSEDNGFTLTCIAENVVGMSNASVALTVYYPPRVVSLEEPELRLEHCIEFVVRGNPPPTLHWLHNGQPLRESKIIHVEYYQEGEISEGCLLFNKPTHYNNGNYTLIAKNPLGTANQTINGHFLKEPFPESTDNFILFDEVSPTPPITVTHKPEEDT

B1: BDNF, P23560 129-247 (ligand, UniProt P23560 129-247, looked up)
chain: HSDPARRGELSVCDSISEWVTAADKKTAVDMSGGTVTVLEKVPVSKGQLKQYFYETKCNPMGYTKEGCRGIDKRHWNSQCRTTQSYVRALTMDSKKRIGWRFIRIDTSCVCTLTIKRGR
B1 registered a Kd of 14 nM.

Broadly, the Kd is the free concentration of one partner at which half of the binding sites on the other are occupied at equilibrium, for simple one-to-one binding. A lower Kd goes with a tighter complex.
